Experimental data reported in article PMC10853767.

Target: NLS-GS-HIStag-GS-dCas12e-ABI (ABI domain fused directly to dCas12e)

yEGFP activation efficiency of the ABA-sensing YES gate with ABI fused directly to dCas12e and an unchanged sgRNA, circuit 3x; the pair is bridged by the small molecule ABA: 2.79 fold
Substance: HA-PYL1-linker-VP64-NLS (PYL1 fused to VP64) (domain or fragment)
